Legend:
[1] = molecular target: T1, Human CD137 on Jurkat cells (human, UniProt Q07011 24-255); test: cell-based or functional assay; parameters: IC90; Jurkat-CD137 NFkB-luciferase, HT1080-FAP co-culture / EC90; Jurkat-CD137 NFkB-luciferase, HT1080-FAP co-culture: unit not given beside the values
[2] = molecular target: T1, Human CD137 on Jurkat cells; test: cell-based or functional assay

B1: CD137 #4 (B21.V25) + FAP #3 (A11 VK7/VH1) (bispecific antibody, human IgG1, kappa, L234A L235A)
heavy: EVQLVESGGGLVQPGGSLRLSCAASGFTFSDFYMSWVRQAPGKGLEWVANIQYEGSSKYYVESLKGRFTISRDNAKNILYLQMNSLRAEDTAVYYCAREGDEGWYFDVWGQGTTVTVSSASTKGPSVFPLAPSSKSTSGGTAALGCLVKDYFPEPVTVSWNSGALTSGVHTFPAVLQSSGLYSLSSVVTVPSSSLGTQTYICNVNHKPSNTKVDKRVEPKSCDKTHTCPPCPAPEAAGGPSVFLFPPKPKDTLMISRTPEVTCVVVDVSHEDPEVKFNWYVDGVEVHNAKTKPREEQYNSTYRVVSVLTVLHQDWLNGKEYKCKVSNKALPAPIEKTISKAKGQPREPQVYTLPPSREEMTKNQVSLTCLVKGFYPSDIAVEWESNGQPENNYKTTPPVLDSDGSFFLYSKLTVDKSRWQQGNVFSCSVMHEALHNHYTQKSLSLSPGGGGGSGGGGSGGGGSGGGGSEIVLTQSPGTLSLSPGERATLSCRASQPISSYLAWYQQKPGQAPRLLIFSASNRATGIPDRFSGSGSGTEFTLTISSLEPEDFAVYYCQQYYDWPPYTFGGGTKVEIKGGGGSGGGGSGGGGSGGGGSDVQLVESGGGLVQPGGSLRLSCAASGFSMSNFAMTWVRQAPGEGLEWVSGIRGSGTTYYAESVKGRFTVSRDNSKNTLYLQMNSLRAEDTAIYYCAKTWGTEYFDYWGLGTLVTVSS
light: DIQMTQSPSSLSASVGDRVTITCRASQSISTAVAWYQQKPGKAPKLLIYAASYLYSGVPSRFSGSGSGTDFTLTISSLQPEDFAVYYCQQHYSNPWTFGQGTKLEIKRTVAAPSVFIFPPSDEQLKSGTASVVCLLNNFYPREAKVQWKVDNALQSGNSQESVTEQDSKDSTYSLSSTLTLSKADYEKHKVYACEVTHQGLSSPVTKSFNRGEC
- EC90; Jurkat-CD137 NFkB-luciferase, HT1080-FAP co-culture [1]: 2.55
- IC90; Jurkat-CD137 NFkB-luciferase, HT1080-FAP co-culture [1]: 492
- Total AUC; Jurkat-CD137 NFkB-luciferase, HT1080-FAP co-culture [1]: 2.5e+06
- Average EC50; Jurkat-CD137 NFkB-luciferase, HT1080-FAP co-culture [2]: 0.248 nM
- Average EC90; Jurkat-CD137 NFkB-luciferase, HT1080-FAP co-culture [2]: 1.51 nM
- Average IC50; Jurkat-CD137 NFkB-luciferase, HT1080-FAP co-culture [2]: 747 nM
- Average IC90; Jurkat-CD137 NFkB-luciferase, HT1080-FAP co-culture [2]: 79.2 nM
- Ratio IC50/EC50; Jurkat-CD137 NFkB-luciferase, HT1080-FAP co-culture [2]: 3010
- Ratio IC90/EC90; Jurkat-CD137 NFkB-luciferase, HT1080-FAP co-culture [2]: 52.3

B2: CD137 #5 (B21.V29) + FAP #2 (A11 VK3/VH3) (bispecific antibody, human IgG1, kappa, L234A L235A)
heavy: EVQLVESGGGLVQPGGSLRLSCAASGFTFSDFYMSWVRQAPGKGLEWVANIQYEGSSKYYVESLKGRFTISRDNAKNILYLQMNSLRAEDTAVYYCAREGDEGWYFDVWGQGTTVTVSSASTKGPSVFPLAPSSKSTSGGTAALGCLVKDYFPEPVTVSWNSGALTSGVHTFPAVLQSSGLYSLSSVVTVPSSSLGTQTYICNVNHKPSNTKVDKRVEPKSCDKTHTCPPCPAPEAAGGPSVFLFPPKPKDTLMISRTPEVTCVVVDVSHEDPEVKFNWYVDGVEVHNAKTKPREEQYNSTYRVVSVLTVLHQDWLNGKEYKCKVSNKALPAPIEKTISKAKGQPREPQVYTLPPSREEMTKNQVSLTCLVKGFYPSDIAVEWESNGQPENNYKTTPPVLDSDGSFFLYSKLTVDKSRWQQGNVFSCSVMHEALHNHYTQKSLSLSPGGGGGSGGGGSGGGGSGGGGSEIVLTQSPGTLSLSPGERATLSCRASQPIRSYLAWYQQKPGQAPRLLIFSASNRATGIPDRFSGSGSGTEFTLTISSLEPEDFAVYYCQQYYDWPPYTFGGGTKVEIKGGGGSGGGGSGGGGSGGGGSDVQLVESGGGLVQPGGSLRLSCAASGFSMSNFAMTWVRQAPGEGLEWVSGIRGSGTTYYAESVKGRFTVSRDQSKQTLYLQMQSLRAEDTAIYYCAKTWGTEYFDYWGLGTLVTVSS
light: DIQMTQSPSSLSASVGDRVTITCRASQSISTALAWYQQKPGKAPKLLIYAASYRYSGVPSRFSGSGSGTDFTLTISSLQPEDFAVYYCQQHYSNPWTFGQGTKLEIKRTVAAPSVFIFPPSDEQLKSGTASVVCLLNNFYPREAKVQWKVDNALQSGNSQESVTEQDSKDSTYSLSSTLTLSKADYEKHKVYACEVTHQGLSSPVTKSFNRGEC
- EC90; Jurkat-CD137 NFkB-luciferase, HT1080-FAP co-culture [1]: 0.78
- IC90; Jurkat-CD137 NFkB-luciferase, HT1080-FAP co-culture [1]: 62.8
- Total AUC; Jurkat-CD137 NFkB-luciferase, HT1080-FAP co-culture [1]: 2.9e+06
- Average EC50; Jurkat-CD137 NFkB-luciferase, HT1080-FAP co-culture [2]: 0.16 nM
- Average EC90; Jurkat-CD137 NFkB-luciferase, HT1080-FAP co-culture [2]: 0.883 nM
- Average IC50; Jurkat-CD137 NFkB-luciferase, HT1080-FAP co-culture [2]: 444 nM
- Average IC90; Jurkat-CD137 NFkB-luciferase, HT1080-FAP co-culture [2]: 86.7 nM
- Ratio IC50/EC50; Jurkat-CD137 NFkB-luciferase, HT1080-FAP co-culture [2]: 2780
- Ratio IC90/EC90; Jurkat-CD137 NFkB-luciferase, HT1080-FAP co-culture [2]: 98.1

B3: CD137 #6 (B21.V37) + FAP #5 (C3 VK1/VH4) (bispecific antibody, human IgG1, kappa, L234A L235A)
heavy: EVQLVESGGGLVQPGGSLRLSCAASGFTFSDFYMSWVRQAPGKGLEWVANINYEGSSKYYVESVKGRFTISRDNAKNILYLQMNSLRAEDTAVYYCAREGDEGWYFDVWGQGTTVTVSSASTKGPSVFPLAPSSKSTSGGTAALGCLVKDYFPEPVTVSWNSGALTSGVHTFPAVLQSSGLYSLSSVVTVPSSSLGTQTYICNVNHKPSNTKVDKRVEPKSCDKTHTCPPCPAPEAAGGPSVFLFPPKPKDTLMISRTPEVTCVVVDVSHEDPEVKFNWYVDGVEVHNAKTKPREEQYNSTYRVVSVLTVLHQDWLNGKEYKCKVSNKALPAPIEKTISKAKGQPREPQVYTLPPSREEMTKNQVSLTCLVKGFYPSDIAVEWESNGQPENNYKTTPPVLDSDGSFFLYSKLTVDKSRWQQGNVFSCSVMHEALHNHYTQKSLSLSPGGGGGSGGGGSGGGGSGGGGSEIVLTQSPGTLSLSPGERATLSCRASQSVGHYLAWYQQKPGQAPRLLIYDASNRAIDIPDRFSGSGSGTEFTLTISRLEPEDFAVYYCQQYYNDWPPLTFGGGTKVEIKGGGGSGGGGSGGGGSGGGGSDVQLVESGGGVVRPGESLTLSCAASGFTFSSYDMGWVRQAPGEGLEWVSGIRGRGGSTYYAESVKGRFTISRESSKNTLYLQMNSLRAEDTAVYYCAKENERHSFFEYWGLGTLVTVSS
light: DIQMTQSPSSLSASVGDRVTITCRASQSISTALAWYQQKPGKAPKLLIYAASYRYSGVPSRFSGSGSGTDFTLTISSLQPEDFAVYYCQQHYSNPWTFGQGTKLEIKRTVAAPSVFIFPPSDEQLKSGTASVVCLLNNFYPREAKVQWKVDNALQSGNSQESVTEQDSKDSTYSLSSTLTLSKADYEKHKVYACEVTHQGLSSPVTKSFNRGEC
- EC90; Jurkat-CD137 NFkB-luciferase, HT1080-FAP co-culture [1]: 0.47
- IC90; Jurkat-CD137 NFkB-luciferase, HT1080-FAP co-culture [1]: 13.8
- Total AUC; Jurkat-CD137 NFkB-luciferase, HT1080-FAP co-culture [1]: 3.6e+06
- Average EC50; Jurkat-CD137 NFkB-luciferase, HT1080-FAP co-culture [2]: 0.054 nM
- Average EC90; Jurkat-CD137 NFkB-luciferase, HT1080-FAP co-culture [2]: 0.315 nM
- Average IC50; Jurkat-CD137 NFkB-luciferase, HT1080-FAP co-culture [2]: 191 nM
- Average IC90; Jurkat-CD137 NFkB-luciferase, HT1080-FAP co-culture [2]: 13.8 nM
- Ratio IC50/EC50; Jurkat-CD137 NFkB-luciferase, HT1080-FAP co-culture [2]: 3520
- Ratio IC90/EC90; Jurkat-CD137 NFkB-luciferase, HT1080-FAP co-culture [2]: 43.8

B4: CD137 #5 (B21.V29) + FAP #5 (C3 VK1/VH4) (bispecific antibody, human IgG1, kappa, L234A L235A)
heavy: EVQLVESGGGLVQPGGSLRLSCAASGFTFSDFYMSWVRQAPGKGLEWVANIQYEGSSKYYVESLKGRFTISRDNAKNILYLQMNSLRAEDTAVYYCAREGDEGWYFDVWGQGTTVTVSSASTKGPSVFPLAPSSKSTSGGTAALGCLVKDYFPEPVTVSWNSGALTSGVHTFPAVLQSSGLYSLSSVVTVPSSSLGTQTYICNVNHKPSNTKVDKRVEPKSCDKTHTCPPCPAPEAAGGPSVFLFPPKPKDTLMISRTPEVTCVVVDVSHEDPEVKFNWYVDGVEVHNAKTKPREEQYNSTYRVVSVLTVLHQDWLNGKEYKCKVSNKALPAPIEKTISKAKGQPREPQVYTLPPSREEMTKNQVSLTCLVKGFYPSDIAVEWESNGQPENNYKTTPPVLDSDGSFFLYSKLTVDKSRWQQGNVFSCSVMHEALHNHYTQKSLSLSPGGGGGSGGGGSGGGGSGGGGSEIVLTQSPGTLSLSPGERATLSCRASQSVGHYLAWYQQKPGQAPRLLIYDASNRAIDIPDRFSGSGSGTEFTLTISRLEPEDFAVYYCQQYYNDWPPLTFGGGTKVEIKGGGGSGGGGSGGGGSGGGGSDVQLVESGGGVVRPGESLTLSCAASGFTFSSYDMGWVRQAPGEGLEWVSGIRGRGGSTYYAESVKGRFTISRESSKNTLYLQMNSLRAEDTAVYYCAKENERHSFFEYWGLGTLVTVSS
light: DIQMTQSPSSLSASVGDRVTITCRASQSISTALAWYQQKPGKAPKLLIYAASYRYSGVPSRFSGSGSGTDFTLTISSLQPEDFAVYYCQQHYSNPWTFGQGTKLEIKRTVAAPSVFIFPPSDEQLKSGTASVVCLLNNFYPREAKVQWKVDNALQSGNSQESVTEQDSKDSTYSLSSTLTLSKADYEKHKVYACEVTHQGLSSPVTKSFNRGEC
- EC90; Jurkat-CD137 NFkB-luciferase, HT1080-FAP co-culture [1]: 0.8
- IC90; Jurkat-CD137 NFkB-luciferase, HT1080-FAP co-culture [1]: 35.7
- Total AUC; Jurkat-CD137 NFkB-luciferase, HT1080-FAP co-culture [1]: 3.2e+06
- Average EC50; Jurkat-CD137 NFkB-luciferase, HT1080-FAP co-culture [2]: 0.115 nM
- Average EC90; Jurkat-CD137 NFkB-luciferase, HT1080-FAP co-culture [2]: 0.644 nM
- Average IC50; Jurkat-CD137 NFkB-luciferase, HT1080-FAP co-culture [2]: 319 nM
- Average IC90; Jurkat-CD137 NFkB-luciferase, HT1080-FAP co-culture [2]: 69.2 nM
- Ratio IC50/EC50; Jurkat-CD137 NFkB-luciferase, HT1080-FAP co-culture [2]: 2790
- Ratio IC90/EC90; Jurkat-CD137 NFkB-luciferase, HT1080-FAP co-culture [2]: 107

B5: CD137 #5 (B21.V29) + FAP #3 (A11 VK7/VH1) (bispecific antibody, human IgG1, kappa, L234A L235A)
heavy: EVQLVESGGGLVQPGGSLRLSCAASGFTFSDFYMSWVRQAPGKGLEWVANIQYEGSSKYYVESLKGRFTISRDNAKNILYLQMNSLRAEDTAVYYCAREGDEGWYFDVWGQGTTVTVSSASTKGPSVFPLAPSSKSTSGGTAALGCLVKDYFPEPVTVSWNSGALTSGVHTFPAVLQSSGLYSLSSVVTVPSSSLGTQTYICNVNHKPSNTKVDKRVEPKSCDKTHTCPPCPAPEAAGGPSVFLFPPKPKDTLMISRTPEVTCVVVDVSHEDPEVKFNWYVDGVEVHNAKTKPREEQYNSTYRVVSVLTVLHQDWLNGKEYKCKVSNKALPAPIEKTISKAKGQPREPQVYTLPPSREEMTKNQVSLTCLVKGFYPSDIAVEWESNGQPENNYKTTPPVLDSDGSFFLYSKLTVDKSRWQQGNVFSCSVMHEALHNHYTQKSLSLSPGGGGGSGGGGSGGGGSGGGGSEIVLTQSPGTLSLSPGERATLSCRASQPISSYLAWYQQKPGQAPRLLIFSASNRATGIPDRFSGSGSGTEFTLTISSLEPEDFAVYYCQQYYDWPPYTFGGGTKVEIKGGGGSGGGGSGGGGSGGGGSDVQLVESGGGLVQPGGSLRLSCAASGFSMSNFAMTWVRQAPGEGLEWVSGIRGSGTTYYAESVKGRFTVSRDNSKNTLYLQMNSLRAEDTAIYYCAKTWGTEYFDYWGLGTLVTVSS
light: DIQMTQSPSSLSASVGDRVTITCRASQSISTALAWYQQKPGKAPKLLIYAASYRYSGVPSRFSGSGSGTDFTLTISSLQPEDFAVYYCQQHYSNPWTFGQGTKLEIKRTVAAPSVFIFPPSDEQLKSGTASVVCLLNNFYPREAKVQWKVDNALQSGNSQESVTEQDSKDSTYSLSSTLTLSKADYEKHKVYACEVTHQGLSSPVTKSFNRGEC
- EC90; Jurkat-CD137 NFkB-luciferase, HT1080-FAP co-culture [1]: 0.52
- IC90; Jurkat-CD137 NFkB-luciferase, HT1080-FAP co-culture [1]: 51.9
- Total AUC; Jurkat-CD137 NFkB-luciferase, HT1080-FAP co-culture [1]: 2.9e+06
- Average EC50; Jurkat-CD137 NFkB-luciferase, HT1080-FAP co-culture [2]: 0.09 nM
- Average EC90; Jurkat-CD137 NFkB-luciferase, HT1080-FAP co-culture [2]: 0.671 nM
- Average IC50; Jurkat-CD137 NFkB-luciferase, HT1080-FAP co-culture [2]: 347 nM
- Average IC90; Jurkat-CD137 NFkB-luciferase, HT1080-FAP co-culture [2]: 52.8 nM
- Ratio IC50/EC50; Jurkat-CD137 NFkB-luciferase, HT1080-FAP co-culture [2]: 3840
- Ratio IC90/EC90; Jurkat-CD137 NFkB-luciferase, HT1080-FAP co-culture [2]: 78.6

B6: CD137 #6 (B21.V37) + FAP #2 (A11 VK3/VH3) (bispecific antibody, human IgG1, kappa, L234A L235A)
heavy: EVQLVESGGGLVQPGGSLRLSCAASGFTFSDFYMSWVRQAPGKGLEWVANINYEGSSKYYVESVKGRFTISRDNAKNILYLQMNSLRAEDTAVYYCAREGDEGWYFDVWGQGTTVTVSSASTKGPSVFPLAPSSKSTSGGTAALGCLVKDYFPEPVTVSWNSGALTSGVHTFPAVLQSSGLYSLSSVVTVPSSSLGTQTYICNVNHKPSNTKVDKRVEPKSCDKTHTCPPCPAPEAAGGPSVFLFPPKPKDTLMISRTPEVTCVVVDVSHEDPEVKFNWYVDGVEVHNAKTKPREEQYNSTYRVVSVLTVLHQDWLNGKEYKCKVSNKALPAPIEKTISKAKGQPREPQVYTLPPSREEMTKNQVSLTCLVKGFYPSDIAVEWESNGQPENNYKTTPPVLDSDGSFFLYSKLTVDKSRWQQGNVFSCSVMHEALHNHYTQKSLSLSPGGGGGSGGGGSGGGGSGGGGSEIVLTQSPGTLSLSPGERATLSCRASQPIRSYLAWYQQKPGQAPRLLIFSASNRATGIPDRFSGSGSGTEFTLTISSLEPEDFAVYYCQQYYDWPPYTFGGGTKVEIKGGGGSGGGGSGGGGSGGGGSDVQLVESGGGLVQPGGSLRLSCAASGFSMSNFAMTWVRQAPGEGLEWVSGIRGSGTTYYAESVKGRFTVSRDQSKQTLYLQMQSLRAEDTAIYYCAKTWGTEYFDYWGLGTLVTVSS
light: DIQMTQSPSSLSASVGDRVTITCRASQSISTALAWYQQKPGKAPKLLIYAASYRYSGVPSRFSGSGSGTDFTLTISSLQPEDFAVYYCQQHYSNPWTFGQGTKLEIKRTVAAPSVFIFPPSDEQLKSGTASVVCLLNNFYPREAKVQWKVDNALQSGNSQESVTEQDSKDSTYSLSSTLTLSKADYEKHKVYACEVTHQGLSSPVTKSFNRGEC
- EC90; Jurkat-CD137 NFkB-luciferase, HT1080-FAP co-culture [1]: 0.55
- IC90; Jurkat-CD137 NFkB-luciferase, HT1080-FAP co-culture [1]: 53.6
- Total AUC; Jurkat-CD137 NFkB-luciferase, HT1080-FAP co-culture [1]: 4e+06
- Average EC50; Jurkat-CD137 NFkB-luciferase, HT1080-FAP co-culture [2]: 0.153 nM
- Average EC90; Jurkat-CD137 NFkB-luciferase, HT1080-FAP co-culture [2]: 1.07 nM
- Average IC50; Jurkat-CD137 NFkB-luciferase, HT1080-FAP co-culture [2]: 314 nM
- Average IC90; Jurkat-CD137 NFkB-luciferase, HT1080-FAP co-culture [2]: 105 nM
- Ratio IC50/EC50; Jurkat-CD137 NFkB-luciferase, HT1080-FAP co-culture [2]: 2060
- Ratio IC90/EC90; Jurkat-CD137 NFkB-luciferase, HT1080-FAP co-culture [2]: 98.1

B7: CD137 #6 (B21.V37) + FAP #3 (A11 VK7/VH1) (bispecific antibody, human IgG1, kappa, L234A L235A)
heavy: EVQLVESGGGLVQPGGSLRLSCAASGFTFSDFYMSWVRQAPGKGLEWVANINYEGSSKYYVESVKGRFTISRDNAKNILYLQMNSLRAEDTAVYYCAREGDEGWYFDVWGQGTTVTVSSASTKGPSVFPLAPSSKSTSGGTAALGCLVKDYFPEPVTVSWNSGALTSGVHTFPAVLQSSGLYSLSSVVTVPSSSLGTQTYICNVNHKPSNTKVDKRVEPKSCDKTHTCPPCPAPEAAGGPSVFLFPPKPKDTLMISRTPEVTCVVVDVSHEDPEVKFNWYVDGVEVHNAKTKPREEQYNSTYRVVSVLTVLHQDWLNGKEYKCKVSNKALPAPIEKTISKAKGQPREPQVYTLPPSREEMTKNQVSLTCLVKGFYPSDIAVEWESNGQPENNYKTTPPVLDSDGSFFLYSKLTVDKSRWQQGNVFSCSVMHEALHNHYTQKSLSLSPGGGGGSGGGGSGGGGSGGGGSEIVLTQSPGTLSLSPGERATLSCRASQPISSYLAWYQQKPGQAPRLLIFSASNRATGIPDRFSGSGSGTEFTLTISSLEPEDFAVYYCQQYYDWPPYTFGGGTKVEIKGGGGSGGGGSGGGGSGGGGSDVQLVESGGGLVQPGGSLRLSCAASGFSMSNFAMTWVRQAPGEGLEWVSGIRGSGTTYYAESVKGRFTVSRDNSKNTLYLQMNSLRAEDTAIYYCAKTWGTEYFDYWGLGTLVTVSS
light: DIQMTQSPSSLSASVGDRVTITCRASQSISTALAWYQQKPGKAPKLLIYAASYRYSGVPSRFSGSGSGTDFTLTISSLQPEDFAVYYCQQHYSNPWTFGQGTKLEIKRTVAAPSVFIFPPSDEQLKSGTASVVCLLNNFYPREAKVQWKVDNALQSGNSQESVTEQDSKDSTYSLSSTLTLSKADYEKHKVYACEVTHQGLSSPVTKSFNRGEC
- EC90; Jurkat-CD137 NFkB-luciferase, HT1080-FAP co-culture [1]: 2.34
- IC90; Jurkat-CD137 NFkB-luciferase, HT1080-FAP co-culture [1]: 258
- Total AUC; Jurkat-CD137 NFkB-luciferase, HT1080-FAP co-culture [1]: 3.5e+06
- Average EC50; Jurkat-CD137 NFkB-luciferase, HT1080-FAP co-culture [2]: 0.141 nM
- Average EC90; Jurkat-CD137 NFkB-luciferase, HT1080-FAP co-culture [2]: 1.43 nM
- Average IC50; Jurkat-CD137 NFkB-luciferase, HT1080-FAP co-culture [2]: 756 nM
- Average IC90; Jurkat-CD137 NFkB-luciferase, HT1080-FAP co-culture [2]: 165 nM
- Ratio IC50/EC50; Jurkat-CD137 NFkB-luciferase, HT1080-FAP co-culture [2]: 5370
- Ratio IC90/EC90; Jurkat-CD137 NFkB-luciferase, HT1080-FAP co-culture [2]: 115

B8: CD137 #8 (A49.V43) + FAP #5 (C3 VK1/VH4) (bispecific antibody, human IgG1, kappa, L234A L235A)
heavy: not shown
light: EIVMTQSPLSLPVTPGEPASISCRSSQSLLYSNGYNHLDWYLQKPGQSPQLLIYLGSNRASGVPDRFSGSGSGTDFTLKISRVEAEDVGVYYCMQALQTPPTFGQGTKLEIKRTVAAPSVFIFPPSDEQLKSGTASVVCLLNNFYPREAKVQWKVDNALQSGNSQESVTEQDSKDSTYSLSSTLTLSKADYEKHKVYACEVTHQGLSSPVTKSFNRGEC
- EC90; Jurkat-CD137 NFkB-luciferase, HT1080-FAP co-culture [1]: 0.98
- IC90; Jurkat-CD137 NFkB-luciferase, HT1080-FAP co-culture [1]: 54
- Total AUC; Jurkat-CD137 NFkB-luciferase, HT1080-FAP co-culture [1]: 3.18e+07
- Average EC50; Jurkat-CD137 NFkB-luciferase, HT1080-FAP co-culture [2]: 0.166 nM
- Average EC90; Jurkat-CD137 NFkB-luciferase, HT1080-FAP co-culture [2]: 1.43 nM
- Average IC50; Jurkat-CD137 NFkB-luciferase, HT1080-FAP co-culture [2]: 624 nM
- Average IC90; Jurkat-CD137 NFkB-luciferase, HT1080-FAP co-culture [2]: 84.6 nM
- Ratio IC50/EC50; Jurkat-CD137 NFkB-luciferase, HT1080-FAP co-culture [2]: 3750
- Ratio IC90/EC90; Jurkat-CD137 NFkB-luciferase, HT1080-FAP co-culture [2]: 59.4

Source: US20250136720A1 (Boehringer Ingelheim, published 2025)
